The text below walks through data of publication PMC4963399.

In the assay the target is T1, rhodopsin, P15409.
T1 chain: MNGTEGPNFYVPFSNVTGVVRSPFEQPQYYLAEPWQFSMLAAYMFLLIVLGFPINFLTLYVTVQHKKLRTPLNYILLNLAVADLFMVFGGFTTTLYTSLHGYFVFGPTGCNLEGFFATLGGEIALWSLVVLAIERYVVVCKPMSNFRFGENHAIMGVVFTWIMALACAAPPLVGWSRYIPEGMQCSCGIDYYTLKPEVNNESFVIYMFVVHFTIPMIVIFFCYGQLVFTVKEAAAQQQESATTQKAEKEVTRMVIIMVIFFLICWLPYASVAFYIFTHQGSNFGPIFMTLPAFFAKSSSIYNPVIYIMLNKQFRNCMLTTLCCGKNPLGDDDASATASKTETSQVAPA
The experiment in a line: FRET or BRET; three cube sensitized acceptor emission FRET on single isolated rod outer segments of C57BL/6J mice co-transduced with two rAAV vectors (cerulean and citrine fusions); FRET imaging solution pH 7.4; FRET efficiency EA as mean ± SEM. The following applies: remark: other sources report otherwise.

B1: peripherin-2, N-terminally tagged with citrine, P15499 1-346 (natural protein)
chain: MALLKVKFDQKKRVKLAQGLWLMNWLSVLAGIVLFSLGLFLKIELRKRSEVMNNSESHFVPNSLIGVGVLSCVFNSLAGKICYDALDPAKYAKWKPWLKPYLAVCIFFNVILFLVALCCFLLRGSLESTLAYGLKNGMKYYRDTDTPGRCFMKKTIDMLQIEFKCCGNNGFRDWFEIQWISNRYLDFSSKEVKDRIKSNVDGRYLVDGVPFSCCNPSSPRPCIQYQLTNNSAHYSYDHQTEELNLWLRGCRAALLNYYSSLMNSMGVVTLLVWLFEVSITAGLRYLHTALESVSNPEDPECESEGWLLEKSVPETWKAFLESFKKLGKSNQVEAEGADAGPAPEAG
On to B1, for which the FRET efficiency EA is 4.52.

B2: peripherin-2, C-terminally tagged with citrine, P15499 1-346 (natural protein)
chain: MALLKVKFDQKKRVKLAQGLWLMNWLSVLAGIVLFSLGLFLKIELRKRSEVMNNSESHFVPNSLIGVGVLSCVFNSLAGKICYDALDPAKYAKWKPWLKPYLAVCIFFNVILFLVALCCFLLRGSLESTLAYGLKNGMKYYRDTDTPGRCFMKKTIDMLQIEFKCCGNNGFRDWFEIQWISNRYLDFSSKEVKDRIKSNVDGRYLVDGVPFSCCNPSSPRPCIQYQLTNNSAHYSYDHQTEELNLWLRGCRAALLNYYSSLMNSMGVVTLLVWLFEVSITAGLRYLHTALESVSNPEDPECESEGWLLEKSVPETWKAFLESFKKLGKSNQVEAEGADAGPAPEAG
As for B2, the FRET efficiency EA worked out at 2.76.
